Experimental data published in a protein production outcome set (Wang et al. 2014).

Test: label from the status in PepcDB records
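Also: failed if final PepcDB status was selected cloned or expressed and not failed if soluble or beyond.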

Row | Sequence | protein production
1 | MQVLHVCSEMFPLLKTGGLADVIGALPAAQIADGVDARVLLPAFPDIRRGVTDAQVVSRRDTFAGHITLLFGHYNGVGIYLIDAPHLYDRPGSPYHDTNLFAYTDNVLRFALLGWVGAEMASGLDPFWRPDVVHAHDWHAGLAPAYLAARGRPAKSVFTVHNLAYQGMFYAHHMNDIQLPWSFFNIHGLEFNGQISFLKAGLYYADHITAVSPTYAREITEPQFAYGMEGLLQQRHREGRLSGVLNGVDEKIWSPETDLLLASRYTRDTLEDKAENKRQLQIAMGLKVDDKVPLFAVVSRLTSQKGLDLVLEALPGLLEQGGQLALLGAGDPVLQEGFLAAAAEYPGQVGVQIGYHEAFSHRIMGGADVILVPSRFEPCGLTQLYGLKYGTLPLVRRTGGLADTVSDCSLENLADGVASGFVFEDSNAWSLLRAIRRAFVLWSRPSLWRFVQRQAMAMDFSWQVAAKSYRELYYRLK | failed
2 | MQVQHHNAHLSRSVQAQVARLVLQANLAYGESNSNGLSYIQRLKARNECREYLNQALALEADHAAALGLLGRVEMDDGQLEKAHALFNASLNRQPAQAQQYCNLGYWALKSERPALAEEYFLQALECDRQSAAAFCGVAHAKRLQGQFDVAYLHYRKLLQSGSEWDSVYSGMLSCAQHLQVHKADSDLALDAIALLRQEGLPHQEIGHFVGAIIQQQYDLDNPNAEIFLDAAAEDELLILALQKTLMPNAAVEELVVLLRRAIMAEVAQTASLRDELQPLCLAIAEYADRTGFALAAEDDEERLAATINESIMAQFAVGEPQEALIGSLMISAMYGALFHQNFAVQLGQWNLVDWPLAMQPIMAASYYNRAEEEAIKQNFDEKAEELCLEKTDVPQAWPAWSQLAYRTETSLKAVMAQELGLNTDNLPATLRIMVCGAQSGQRAMELAQYLNDVEVIAVDESLANIAKGTRMAQSLNMDNIVFWPWSIAQRFVADGHKVHWVEVGRLPSPAMTELSLAALINSASIAGAVVHMHTSMAEQTAGDKQIRRLIAEHQLQPTRTSLRQLRRMVLANKQDAVWSSLLQDDDFYSLGGCRDRWFRPQDANQLKELLALVSNEVEWKLVKARDEDGHSLATGPVQRQIQAEALGSEVQSLMGQNLSVYFQRRR | failed
3 | MQVSVETTQGLGRRVTITIAADSIETAVKSELVNVAKKVRIDGFRKGKVPMNIVAQRYGASVRQDVLGDLMSRNFIDAIIKEKINPAGAPTYVPGEYKLGEDFTYSVEFEVYPEVELQGLEAIEVEKPIVEVTDADVDGMLDTLRKQQATWKEKDGAVEAEDRVTIDFTGSVDGEEFEGGKASDFVLAMGQGRMIPGFEDGIKGHKAGEEFTIDVTFPEEYHAENLKGKAAKFAINLKKVEERELPELTAEFIKRFGVEDGSVEGLRAEVRKNMERELKSAIRNRVKSQAIEGLVKANDIDVPAALIDSEIDVLRRQAAQRFGGNEKQALELPRELFEEQAKRRVVVGLLLGEVIRTNELKADEERVKGLIEEMASAYEDPKEVIEFYSKNKELMDNMRNVALEEQAVEAVLAKAKVTEKETTFNELMNQQA | not failed
4 | MQWQESLPWTPEARQKLKNIPYFARVQARQRIEQLARQADLDEVTVDLVEQARLEFGQ | failed
5 | MQWRNTSSRYGVFSLFLHWGSALVVFGLFGLGLWMRELSYYDPWYHPAPALHKSIGILLAIALLVRIVWRFVSPPPPAPANHGPLTRVASKLGHLALYGLLLAVIVAGYLISTADGEPISVFGWFSVPATLSGLPDQADVAGEIHLYLAWALVVFAVLHALAALKHHFVDRDPTLKRMLGRSSNDQQPR | not failed
6 | MQYLSILEALGGLGVFILGMKTMSEGLQKIAGDRFRRHLERIAGNRLTAALLGSTLSSLLQSSSAACIITVGFINAGLISLYQALGILLGTGIGTTLAVQFIAFKISSFALPAVFVGVCLRCFLRRRRWVNAGELILGAGLLFLGLRIMESNLQPLQEYAIVFTHQDMFVSKRIAAVLFGATLTLLVQSGSTAIAVIMALAGSSLVSFETGAAMVIGELLGTSVITAFASIGGTLEAKRTVFFYFMVNLLAVVVVMLVFPSYLSFVTYISPEDIASSAGISRVLANTHTLFSIMSAVIFLPLIGFFARTAPRIIPGSERASSVEARTVFIDPRVLNTPPIALLQARSELRRMAGISLTMYSEMVEQFFRYDARKAVGIRQKENAVDILQRDLTDFLVSLSRRELAPEASMEIPVMLQLIGELEHVADQSEAVLDYLRRKKEEKLLFSNAAMTEIRHLARTVEKLVDLAVETMDNPPPDAVEQGRSLRDDVGRQREAMLDGHIKRLSAGKCSVRAGIIYADMITAFVKIADSSVTIIETRKEFT | failed
7 | MRAAALAGAAGVVLCLLGGIGGAVAALSLWLAQPAFALAVSWARGTRAVPGQPRAIAQALPPLLAIWGVGLLALAALISWPLTALRDSGSLAAALALSVAVSAALLGLWRTWPLWGEVERDGGALAPRWQALAAQELHAWRGLLAAALVLAMCTLAVVLAWPGWLSGGLRWGLAVAACVLLPVAHLLLQRTPAPMRSDVPQTRQAADFFSEAAAEPRPLEPVAQHQLVPELFEAARSGRVDRALQLLEAGADPQALPLPEWRDQRSLPALAAVLPDLRLLRELIVRRVDVNQPHRGMTPLLAATRDSWHGRPDAVMTLLANGADPRASDNDGNTPLHHAVRSSDPGVAALLHDAAAELDALNNEGHSPLAMACQVGNWRLAKFLLERGAQSEPEGGAPVLLAAAGTEEDDPAGVQLLLKHKARVDARDRQRRSALHEAALAGHGDIVEALLSAGANLEARDLLGRTPWLDAARQARSAVLERLVARKADVLAIDGDGRNALMLACAADNVSPALIRRLLDLQVPADSVDAHGRRAVDVAAEAGRWAIVQLLDPAYPLPAAVSDAQGDTPGAAVLPDRPPLVLLREGLQLGQRDGLVALARLCAPDELGGLLHDAHLALNAEAVDWLLRHGADAEVRDACGDVPMFALLSRGVEAVPALQALLRHGVSPAGAGGLTRLLSACVQHDAASRGLEQFALELLERGADPFAPSAAGDPPLSLAVRLGWLRLQHWLLEHGVDREARDSHGMTALHLATALGRDASLKLLVKQGASPEARAADGQTPLGVALSIGRRDLADWLDWRIWSLPRRTLREADVPAAAMTGDTDAVRRLIDLGLAVDAVDAQGCTALLRAAGGGHLGVVTHLLGRGADPQRAANSGATPLSAAVSMRQTEIVAALLHAGAQIEHRLPGGVTVLMLACALGLPDIVARLLTAAADVHATDNQGLAPLHCAALYGFTARDKNRLLALLDTLLLAGADPDYLAGGRVSPLLLLLGARAEPGTSCDEQVVLAGVERLLDEDVSLDVADQRGFGPLHLAALHGLPLLVQRLLRAGADADRRDALNRTPREIAIMRGFIDVAGQFEPALPGVSSMARFLREGR | failed
8 | MRAARLIKMVLLLQSRPTMTAAELARELEVSERTVTRDAQALSEAGVPVYAERGRAGGYRLVGGYRTRLTGLARGEAEALFLSGVPGALREMGLEDAASAARLKVSAALLPSLRDASRTAAQRFHLDAPNWFREPETPELLPAVADAVWDDRRVAARYRRGTDEVVRELEPYGLVLKAGVWYLCARVAGTAGDGPFRVYRIDRFTAVEAGEERFVRDDGFDLPAFWAERAEQFARSILRAEVVVRLSERGVRGLPYAVDALSAREALEAAGAPDADGWVTVALPVESEEVAHAQLRGLGPEVEVLAPAALRERFAREARRLAELYGG | failed
9 | MRAAVRTRIVATYLAVAALWGSTWMAIRIGLEDLPPLRFAGVRMAIAALVLAPFALRGGAWREVVGPARAQLALVAVLQIALPYGLMFVAQQWVPSGLAAVLFASFPVWIALLARALVPGETLTPARVASALLGIAGVAVLQLPHLGDLEGSGRLLLGGALVVLSSMIVALANVLVRRHLAAVSPLAMTAGQTAVGAVLLLAAAALLEQGRPAAFTASAVAALAWLAVFGTALTYVGLYWLVPRVPMAAIGALPLLDTSVAVTLGALVLHEPVGWNLALGGGMVLAAAALTIPRRR | failed
10 | MRACAPIFRLLGGGVEHLGKSGRPGSGGRWWPLCGWLALAALVPAVQAEEGEPAPVEASAAARLVDVNEYFVRGNTVLDARAIEEAVYPFLGPQKALADIEGARDALQKVYQERGYQSVFVELPEQKVEDGIVYLQVSETKVGRVRVVGAKHYSPVEIRDQVPALKEGEVPDFATVQSQLAGLNRGAGRQVMPLVREGQRPGTMDVDLQVEDQNPWHASVGLNNDYSADTEKLRTVVNVGYDNLWQLGHSISLTYFTAPQDTDNAKVWSGSYTAPLSDRWALQFSGYQSDSNIATIGGSNVLGKGHSYGVSAIYTLPAAGNWANSLSVGVDFKDFEEEMRFGRSSDQIPLKYAPMTFGYNGYRYSEKAQLGLGLNLIVGTRRFFGYGSDAEEFHYKRDEASASFSVLKGDLNFTYTFANDWQSASKAAFQLASGPLVSNEQYSAGGATSVRGYLAAERTGDEGYLFSQELRTPSLAKFLGSYVQEWRFYAFAEGAHLSLHDPLPEQEDEYSLASVGLGTRASLSKWLSGSLDWGYPLKDGPNTQKYDPRLHFSVQATF | failed
